Measurements as given in patent publication CN111995674A (INST MILITARY MEDICINE ACADEMY MILITARY SCIENCES PLA, dated 2020).

Target: RBD重组蛋白 (SARS-CoV-2 S蛋白RBD区, 毕赤酵母GJK0601表达) (SARS-CoV-2)

B1: 人鼠嵌合全抗体mhC3 (antibody, V domains shown)
VH: EVQLVESGGDLVKPGGSLKLSCAASGFTFNTYAMNWVRQTPGKGLEWVARIRSKSNNYATYYADSVKDRFTISRDDSQSMLYLQMNNLKTEDTAMYYCVTPYYGNYADWFTYWGQGTSVTVSS
VL: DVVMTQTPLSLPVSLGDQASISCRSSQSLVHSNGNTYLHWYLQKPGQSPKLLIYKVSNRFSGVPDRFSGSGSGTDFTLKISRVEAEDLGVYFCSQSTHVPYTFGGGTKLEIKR
notes: also called mhC3抗体; C3 (图5、图6)
EC50: 0.0129 nM
